Measured values from article PMC8002388.

Columns and labels:
[1] = target: light-activated rhodopsin in rod outer segments (ROS) (UniProt P02699)
[2] = target: light-activated rhodopsin in rod outer segments (ROS) (UniProt P02699); remark: listed apart in the source

UniProt P02699, sequence (P02699 whole entry): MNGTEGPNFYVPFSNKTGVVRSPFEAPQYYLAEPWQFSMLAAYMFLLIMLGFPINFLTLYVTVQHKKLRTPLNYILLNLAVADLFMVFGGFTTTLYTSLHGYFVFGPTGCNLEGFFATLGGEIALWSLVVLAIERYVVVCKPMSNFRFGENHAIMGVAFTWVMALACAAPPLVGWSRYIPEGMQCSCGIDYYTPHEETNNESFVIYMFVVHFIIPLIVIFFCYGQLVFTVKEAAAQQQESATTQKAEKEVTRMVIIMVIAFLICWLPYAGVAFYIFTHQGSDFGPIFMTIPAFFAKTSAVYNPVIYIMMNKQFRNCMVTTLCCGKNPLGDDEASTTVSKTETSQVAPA

Row | Substance | normalized Vmax of rhodopsin (ROS) phosphorylation when [ATP] is varied [1] [A.U.] | Km for rhodopsin, phosphorylation of light-activated rhodopsin in ROS (50 nM-5 µM) by 20 nM GRK2 with 150 nM human Gβ1γ2 and 5 µM ATP [2] [µM]
1 | C-terminally H6-tagged bovine GRK2 E36A (S670A background) (from UniProt P21146 1-689) (enzyme) | 0.9 | 0.13
2 | C-terminally H6-tagged bovine GRK2 E532A (S670A background) (from UniProt P21146 1-689) (enzyme) | 0.8 | 0.14
3 | C-terminally H6-tagged bovine GRK2 L33N (S670A background) (from UniProt P21146 1-689) (enzyme) | 1 | 0.36
4 | C-terminally H6-tagged bovine GRK2 L536N (S670A background) (from UniProt P21146 1-689) (enzyme) | 1.2 | 0.18
5 | C-terminally H6-tagged bovine GRK2 L547N (S670A background) (from UniProt P21146 1-689) (enzyme) | 0.8 | 0.17
6 | C-terminally H6-tagged bovine GRK2, wild type (S670A background) (from UniProt P21146 1-689) (enzyme) | 1.3 | 0.24
